Experimental data as given in IntAct's records for PubMed 9753447.

B1: Ferredoxin--NADP reductase (Anabaena sp. (strain PCC 7119)), P21890 (parent)
chain: MSNQGAFDGAANVESGSRVFVYEVVGMRQNEETDQTNYPIRKSGSVFIRVPYNRMNQEMQRITRLGGKIVTIQTVSALQQLNGRTTIATVTDASSEIAKSEGNGKATPVKTDSGAKAFAKPPAEEQLKKKDNKGNTMTQAKAKHADVPVNLYRPNAPFIGKVISNEPLVKEGGIGIVQHIKFDLTGGNLKYIEGQSIGIIPPGVDKNGKPEKLRLYSIASTRHGDDVDDKTISLCVRQLEYKHPESGETVYGVCSTYLTHIEPGSEVKITGPVGKEMLLPDDPEANVIMLATGTGIAPMRTYLWRMFKDAERAANPEYQFKGFSWLVFGVPTTPNILYKEELEEIQQKYPDNFRLTYAISREQKNPQGGRMYIQDRVAEHADELWQLIKNQKTHTYICGLRGMEEGIDAALSAAAAKEGVTWSDYQKDLKKAGRWHVETY
partner: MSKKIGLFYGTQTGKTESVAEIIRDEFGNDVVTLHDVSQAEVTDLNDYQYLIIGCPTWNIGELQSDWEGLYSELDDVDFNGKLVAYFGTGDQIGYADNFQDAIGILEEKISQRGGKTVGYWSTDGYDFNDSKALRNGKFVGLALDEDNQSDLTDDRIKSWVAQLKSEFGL
B2: Ferredoxin--NADP reductase (Anabaena sp. (strain PCC 7119)), P21890 (parent)
chain: B1 chain

Variants of: B1
Settings: with flav_nosso isiB

effect of a mutation on the interaction	Variant
decreasing interaction	K206S
decreasing interaction	K206E
decreasing interaction	K206Q

Variants of: B2
Settings: with fer1_nosso petF

effect of a mutation on the interaction	Variant
decreasing interaction	K206Q
decreasing interaction	K206E
decreasing interaction	K206S
